EP4692122A1, “HUMANIZED ANTIBODIES TARGETING EPHA10” (priority 2023, dated 2024)

T1: mouse EphA10 on mouse EphA10 overexpressing cell line (mouse, UniProt Q8BYG9 23-1007)
T1 construct: whole, on cells; Parent cell line of the mouse EphA10 overexpressing line not clearly stated
T1 sequence (looked up): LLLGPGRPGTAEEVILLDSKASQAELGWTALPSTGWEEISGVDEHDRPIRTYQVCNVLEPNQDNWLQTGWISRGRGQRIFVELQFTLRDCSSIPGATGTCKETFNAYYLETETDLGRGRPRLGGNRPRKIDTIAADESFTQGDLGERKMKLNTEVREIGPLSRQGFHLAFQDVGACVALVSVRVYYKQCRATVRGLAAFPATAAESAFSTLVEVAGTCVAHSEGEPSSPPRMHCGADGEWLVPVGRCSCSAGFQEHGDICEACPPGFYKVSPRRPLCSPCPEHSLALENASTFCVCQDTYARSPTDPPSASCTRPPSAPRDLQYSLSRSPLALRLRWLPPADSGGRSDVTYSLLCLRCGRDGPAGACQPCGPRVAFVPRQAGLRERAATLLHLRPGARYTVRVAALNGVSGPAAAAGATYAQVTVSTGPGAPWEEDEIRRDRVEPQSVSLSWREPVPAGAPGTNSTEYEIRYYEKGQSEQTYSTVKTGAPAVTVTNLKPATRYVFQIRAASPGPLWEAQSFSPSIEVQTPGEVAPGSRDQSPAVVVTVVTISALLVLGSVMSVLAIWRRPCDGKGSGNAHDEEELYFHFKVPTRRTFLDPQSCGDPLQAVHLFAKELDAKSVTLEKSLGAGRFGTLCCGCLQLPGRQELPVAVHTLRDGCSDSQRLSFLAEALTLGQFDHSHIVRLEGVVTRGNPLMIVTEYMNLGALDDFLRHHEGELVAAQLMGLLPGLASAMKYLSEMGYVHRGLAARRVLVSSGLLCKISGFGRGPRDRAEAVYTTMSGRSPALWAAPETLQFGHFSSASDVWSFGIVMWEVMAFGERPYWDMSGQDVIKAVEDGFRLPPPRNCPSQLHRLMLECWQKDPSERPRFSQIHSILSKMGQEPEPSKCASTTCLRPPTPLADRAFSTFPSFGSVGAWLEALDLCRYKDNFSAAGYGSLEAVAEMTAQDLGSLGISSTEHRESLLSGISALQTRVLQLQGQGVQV

T2: human EphA10 on MDA-MB-231 human EphA10 overexpressing cell line (human, UniProt Q5JZY3 34-1008)
T2 construct: whole, on cells; also called hEphA10; cell-expressing-EphA10
T2 sequence (looked up): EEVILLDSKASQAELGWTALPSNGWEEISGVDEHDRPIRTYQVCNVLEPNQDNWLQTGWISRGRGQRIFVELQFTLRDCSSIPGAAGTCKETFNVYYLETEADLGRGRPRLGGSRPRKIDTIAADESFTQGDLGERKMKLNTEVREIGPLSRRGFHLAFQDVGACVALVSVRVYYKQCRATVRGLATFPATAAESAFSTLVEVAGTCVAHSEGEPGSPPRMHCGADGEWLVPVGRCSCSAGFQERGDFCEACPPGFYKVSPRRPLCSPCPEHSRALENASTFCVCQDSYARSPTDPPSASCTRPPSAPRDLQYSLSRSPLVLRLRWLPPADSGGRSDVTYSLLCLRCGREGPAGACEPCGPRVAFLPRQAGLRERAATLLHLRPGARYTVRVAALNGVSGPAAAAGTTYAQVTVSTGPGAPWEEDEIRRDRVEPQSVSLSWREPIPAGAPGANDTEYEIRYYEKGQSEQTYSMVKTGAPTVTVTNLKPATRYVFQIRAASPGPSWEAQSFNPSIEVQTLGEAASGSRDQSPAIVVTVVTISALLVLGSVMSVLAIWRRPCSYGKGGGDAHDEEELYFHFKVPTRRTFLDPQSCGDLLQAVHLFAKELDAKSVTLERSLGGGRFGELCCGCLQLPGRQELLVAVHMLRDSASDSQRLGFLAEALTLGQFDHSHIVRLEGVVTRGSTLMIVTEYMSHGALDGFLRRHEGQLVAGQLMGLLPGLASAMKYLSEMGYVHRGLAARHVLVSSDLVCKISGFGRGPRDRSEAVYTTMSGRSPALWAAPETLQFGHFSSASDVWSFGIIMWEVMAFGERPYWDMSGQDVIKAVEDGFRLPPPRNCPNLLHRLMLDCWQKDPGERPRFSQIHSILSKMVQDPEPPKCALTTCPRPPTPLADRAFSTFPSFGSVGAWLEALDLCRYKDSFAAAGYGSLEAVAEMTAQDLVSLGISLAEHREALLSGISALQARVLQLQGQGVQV

T3: mEphA10-Fc (mouse EphA10 fused with human Fc) (mouse; human, UniProt Q8BYG9 23-565)
T3 construct: extracellular domain; not shown: human Fc
T3 sequence (looked up): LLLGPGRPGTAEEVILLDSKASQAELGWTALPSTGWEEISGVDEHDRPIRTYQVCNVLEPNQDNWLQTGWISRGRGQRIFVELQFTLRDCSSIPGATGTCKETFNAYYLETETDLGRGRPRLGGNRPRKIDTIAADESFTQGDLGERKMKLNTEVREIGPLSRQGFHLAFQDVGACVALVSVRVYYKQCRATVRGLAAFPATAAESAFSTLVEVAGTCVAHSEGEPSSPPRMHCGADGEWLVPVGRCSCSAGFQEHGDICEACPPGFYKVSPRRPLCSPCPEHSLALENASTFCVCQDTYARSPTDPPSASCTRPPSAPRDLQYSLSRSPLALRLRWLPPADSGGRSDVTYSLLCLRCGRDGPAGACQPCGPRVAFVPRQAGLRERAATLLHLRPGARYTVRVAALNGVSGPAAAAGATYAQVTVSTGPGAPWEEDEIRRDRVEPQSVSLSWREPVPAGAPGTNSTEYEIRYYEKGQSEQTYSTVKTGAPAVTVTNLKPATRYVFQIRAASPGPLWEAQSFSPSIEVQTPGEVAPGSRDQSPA


Assays:
[1] = target: T1, mouse EphA10 on mouse EphA10 …; assay: flow cytometry on mouse EphA10 overexpressing cells, 500 ng antibody
[2] = target: T2, human EphA10 on MDA-MB-231 human EphA10 …; assay: flow cytometry on MDA-MB-231 human EphA10 overexpressing cells, 500 ng antibody
[3] = target: T3, mEphA10-Fc (mouse EphA10 fused with …); assay: ELISA, mEphA10-Fc coated, anti-human kappa HRP

Binder	binding result [1]	binding result [2]	binding result [3]
EphA10-specific humanized antibody 1-1 (antibody, V domains shown, Expressed in Expi293F cells in IgG form; detected with anti-human kappa chain; also called IMGT 1-1) VH: QVTLKESGPTLVKPTQTLTLTCTFSGFSLSTSGMGVGWIRQPPGKALEWLAHIWWDDVKRYNPALKSRLTITKDTSKNQVVLTMTNMDPVDTATYYCARTSFPAGVDYWGQGTLVTVSS VL: DVVMTQSPLSLPVTLGQPASISCRSSQSLQNSNGNTCLNWFQQRPGQSPRRLIYRVSNRFSGVPDRFSGSGSGTDFTLKISRVEAEDVGVYYCLQVTHVPFTFGQGTKLEIKR	binds	binds	
antibody A.7 (antibody, V domains shown, also called A7 antibody) VH: QVTLKESGPTLVKPTQTLTLTCTFSGFSLSTSGMGVGWIRQPPGKALEWLAHIWWDDVKRYNPALKSRLTITKDTSKNQVVLTMTNMDPVDTATYYCARTSFPAGVDYWGQGTLVTVSS VL: DVVMTQSPLSLPVTLGQPASISCRSSQSLQNSNGNTYLNWFQQRPGQSPRRLIYRVSNRFSGVPDRFSGSGSGTDFTLKISRVEAEDVGVYYCLQGTHVPFTFGQGTKLEIKR			binds

Now from value to binder:

binding result [1]	binding result [2]	binding result [3]	Binder
binds	binds		EphA10-specific humanized antibody 1-2 (antibody, V domains shown, Expressed in Expi293F cells in IgG form; detected with anti-human kappa chain; also called IMGT 1-2) VH: QVTLKESGPTLVKPTQTLTLTCTFSGFSLSTSGMGVGWIRQPPGKALEWLAHIWWDDVKRYNPALKSRLTITKDTSKNQVVLTMTNMDPVDTATYYCARTSFPAGVDYWGQGTLVTVSS VL: DIVMTQTPLSLSVTPGQPASISCRSSQSLQNSNGNTCLNWYLQKPGQSPQLLIYRVSNRFSGVPDRFSGSGSGTDFTLKISRVEAEDVGVYYCLQVTHVPFTFGQGTKLEIKR
		binds	antibody 2-W (antibody, V domains shown, 1-2 with the free light chain CDR cysteine replaced by tryptophan; IgG form; also called 2W antibody; W2) VH: QVTLKESGPTLVKPTQTLTLTCTFSGFSLSTSGMGVGWIRQPPGKALEWLAHIWWDDVKRYNPALKSRLTITKDTSKNQVVLTMTNMDPVDTATYYCARTSFPAGVDYWGQGTLVTVSS VL: DIVMTQTPLSLSVTPGQPASISCRSSQSLQNSNGNTWLNWYLQKPGQSPQLLIYRVSNRFSGVPDRFSGSGSGTDFTLKISRVEAEDVGVYYCLQVTHVPFTFGQGTKLEIKR
